According to article PMC7786333, “Integration of diverse DNA substrates by a casposase can be targeted to R-loops in vitro by its fusion to Cas9”:

Target: Casp-Cas9 (Aciduliprofundum boonei T469 / …, UniProt B5IAF4 1-404+=GGSGGSGGSGGSGGSGGSGGSGGS+Q99ZW2:1-1368, internal_change)
Assay: R-loop formation gel assay (deproteinised); sgran50; 5 mM EDTA; 25 mM Tris pH 7.5, 106 mM KCl, 50 ug/ml BSA, 5 mM EDTA, 2 mM DTT, 9% glycerol, 37 C; 150 nM protein, 300 nM sgRNA, 25 nM Cy5-dsran50, 75 nM unlabelled MW12 dsDNA competitor; 8% acrylamide TBE gel
Settings: protein: recombinant, tags: His6, label: 5'-Cy5 on ssran50 strand (strand 2), blunt 50 bp DNA target plus sgRNA, PAM TGG

B1: sgran50 + dsran50 (mixed)
RNA: GGUAGACGAUUACAUUGCUACAGUUUUAGAGCUAGAAAUAGCAAGUUAAAAUAAGGCUAGUCCGUUAUCAACUUGAAAAAGUGGCACCGAGUCGGUGCUU
DNA 1: CAACGTCATAGACGATTACATTGCTACATGGAGCTGTCTAGAGGATCCGA
DNA 2: TCGGATCCTCTAGACAGCTCCATGTAGCAATGTAATCGTCTATGACGTTG
B1: binds.
